Test: soluble on expression in E. coli; label from the status in PepcDB or PDB records

Row | Sequence | soluble on expression in E. coli
1 | MGHHHHHHSHMADQKKVSEAAKEREIKISSSDNEIFLVPRNVIRLSNTINTLLMDLGLDDEEGTNAEPIPVQNVTASILKKVISWCNHHHSDPISTEDSDNREKRTDDIGSWDVEFLKVDQGTLFELILAANYLDIKGLLDVTCKTVANMIKGKSPEEIRRTFNIKNDFTPEEEEQIRKENAWCED | soluble
2 | SNAMTKIYFAGPLFSQADLRYNAYLVEQIRQLDKTIDLYLPQENAAINDKSAYADSKMIALADTENVLASDLLVALLDGPTIDAGVASEIGVAYAKGIPVVALYTDSRQQGADNHQKLDALNEIAENQFHYLNLYTVGLIKLNGRVVSSEEDLLEEIKQRLS | soluble
3 | MSLAQIDSLFVTRLYRAALSEHGPKIDPQEMEASCIAIAEDDEAGQDWCEENGYPGYTSYASLTDLPWRFPIFADLVKSLDAHVAAFAQDLELNLDGRDLKLEDLWINILPEGGTHASHIHPHSVISGTTYVSMPDGASALKLEDPRHAMMMAHPPRTKDCRRELRSFVYEAPNVGDVLLWESFIRHEVPMNMAEDERISVSFNYAWAEGHHHHHH | soluble
4 | LDPSGKSVIYTKSLAFEKALVRPEKEVKKVHTALDALNSSLADGRGVDFAYMMSIYQVESQMTLIEELGDLIMPDPEKYLNGELTYVSRQDFLSGDVVTKLEVVDLFVKQDNQDFNWSHYAGLLEAIKPARITLADIDYRIGSRWIPLAVYGKFAQETFMGKAYELSDQEVATVLEVSPIDGVITYQSKFAYTYSNATDRSLGVPASRYDSGRKIFENLLNSNQPTITKQVVEGDKKKNVTDVEKTTVLRAKETHLQELFQGFVAKYPEVQQMIEDTYNRLYNRTVSKSYDGSHLTIDGLAQNISLRPHQ | not soluble
5 | MFEEGSEDEVTLMGCTQDEVKPKVGLSQKKWFPKEDIVLVRAWLNTNKDHVIGNDQQCQSFLKQIASYVAISPQLDYLPKREHAKCKQRWSKVNKSVTKFVGCYKTATTHKTSGQSEDDVMKLAYEIYYNDTKKKFNLEHTWRKLRYDQKWCEAATIKGNKNAKRKCVDGY | soluble
6 | MAHHHHHHMTHMGRAADGYQRLGNNYPQVTPSSHFAAASPDPVLATPIQTRPLQGNPFHPLLWNGSATSSTGAAGVQASLSRKSRTRLTSGVTAGSSSGPLSSTLSLSTPLSSCASAAASGEGRFQRRVSRDRFGACSTPTSSSTTAQVLQLQRPAQSPMPPLSSSPPASVGLTAAAARGAVTPANLGRERKVAAVNYNALFQQELQQQQRQGSDTGAWPTPSPSPPSGALQYAQLPPSASADVHGTGAHSGSGEGVSEALSSSVTASSVQAGTAEGPLPPDVRRIIAQSCTSSSSSSGADTNAIIDAAEQQARRLISTGRRVKVYREELTTAEEERNDLSAAVEERRLVRSVLQSEVDDINARIQALLQERALAEAQLHAQDDAAAREARKLTEAQDRVTVLRKTIEGIVEETSAARLMLRQIVPSLHIENYY | not soluble
7 | MSPVEESPEEFLARFAAHRVEVRLYPEPWGSPLLEVQTPAGFVYAMDRGAPPAPVGEARVLFHGLARKVARAQGKEGVFREGAAYRLVGTARPLEKGFYLLLARGLPVVVHWEGPMPEEAEVLLWPPLMLFRE | soluble
8 | MRRNISIPASDSESALPGSPQGSDAHVSWWCGCGVIVGMSVSLLRGRTVRRALSVLVVAGLLGAGVTGCSNDAGAKTENTIDASPTPTNTTTDGDGDSTEEPVENTPAEPEQRPTPVEPEAMKTGDKAGAIAAAQFFVEVFDYDARTSSTTLMDKYAYKKCTLCNEMRSDKQRLIDEGEISFWAEYSEAEYINSTFVGDEEIIWEVDTETSYLEHVRSLTSNEITSTRTDLILTMQIGWLGDRWELVSLGYSKK | not soluble
9 | MGSDKIHHHHHHGILKERKLAKKRDEVQRYVLMAADVNLGQGNEFREIFAKSVKPLLINLDTGKVDSDANVLDFDERMAAINPETSSTPKKDIAKIKTRANDARVFKVFDDSGKLSSVVVPFYGKGLWSMIYGYVAVEPDFNTIKGLVVYEHGETPGIGDFVTDPAWLNQWKNKQLFDEKGKFAIRLVKGGVKEGDVHGVDAVSGATMTGRGVQRAMEFWFGVEGFQTFFNQLKTSAVQGEFGGEK | not soluble
10 | MIRYMIKESRMELIEENMKHLQDRLKTAKENEMSAKTVRHDFRHHNQNIATMIQKGETNEALHYIEQYNESLDAARTKEFCSHVTVNAILSSFYIKAQNDGICISIEADTQEGTNISDMDFVAILSNILENAVNGCKECGAHGKINVNIRTVSDKTVIVCSNSCKPGLVIENNMIKHRGIGIESMLTAARKYDGDISYRLENDVLTLCVILKK | not soluble
11 | MSLSDDVALPLEFTDAAANKVKSLIADEDNPNLKLRVYITGGGCSGFQYGFTFDDQVNEGDMTIEKQGVGLVVDPMSLQYLVGGSVDYTEGLEGSRFIVTNPNAKSTCGCGSSFSIEGGSHHHHHH | soluble
12 | MSLRIGVIGLGRIGTIHAENLKMIDDAILYAISDVREDRLREMKEKLGVEKAYKDPHELIEDPNVDAVLVCSSTNTHSELVIACAKAKKHVFCEKPLSLNLADVDRMIEETKKADVILFTGFNRRFDRNFKKLKEAVENGTIGKPHVLRITSRDPAPPPLDYIRVSGGIFLDMTIHDFDMARYIMGEEVEEVFADGSVLVDEEIGKAGDVDTAVVVLRFKSGALGVIDNSRRAVYGYDQRIEVFGSKGRIFADNVRETTVVLTDEQGDRGSRYLYFFLERYRDSYLEELKTFIKNVKSGEPPAVSGEDGKMALLLGYAAKKSLEEKRSVKLEEVIGEGHHHHHH | soluble
13 | MGSDKIHHHHHHMAIIKASTAASVAELTTDIDQQLPQLKAKPFSHELLTTSILTMLGTAAFVGIHHRYRKQHLADARVQDYVRGIYSQMNALQSASHSRSMLRHFRYSCQQAASTWQQAYRLPMNDKQSNSSGLATNNFSAMHTTTMLARPVCWVSGVASMPKDISLINEDNENDFGVVGIDADREVVWQTTMPERVHDIVVQPVFRYEDNTVSNHLNHRQSRDVVVMGRRPSEKFWVLDTATGQVRFAINAATNRHFYGHACYSLDGSKLYVTENDTLSLDGKIGAYAVDKGYQKIAEFDSYGIGPHELIMHPDGETLIIANGGIKTEQASREELNLDTMHPSLVYLNRHDGSLLEQITPEHNQMSVRHLAMHDDGTVMIGIQFQGEKHINVPLVLTHKRGDIKLTPLTMPNNQWQRFHQYIASVAVDSKCNLLCVTTPIGGCAAIFDLTTRALINSVSLPDCAGASIYSRKTGSGKGSVDAEQKSGFIVSDGQGQLTRLSVNDLTILDSELNSDAIAKNNTIGTDIKCHMMSFDNHLQAL | not soluble
14 | MFIQTEATPNPATLKFLPGKVVLESGTVEFLNASQAQASPLAERLFTIPGVTGVYFGFDFITVTKDDAEWQHLKPAILGSIMEHFMSGRPIMGTAIAAEVSDEEGEFFEEGDETIVATIKELLDTRVRPAVAQDGGDITFRGFRDGTVFLNMKGACSGCPSSTATLKHGVQNLLRHFVPEVREVEAV | not soluble
15 | MGSDKIHHHHHHMKQLLAYCLSIILCVSFTGCMENYLDLYPEDKITSASFPENESDIKLLLNGVYAQLREKEVYNQGLFGFGITDGATPNAFNWGTDEVFNKLGAGRLSSSDGGVVTYRWKRCYEIISRANYLLACMDLVDLSEEAKAKYSGETHFLRGLAYSVLAETYGGVPIILTDISTEEARSLKRASLEETWQQALDDYEVAITNLGVDAPEPGRATKGAALGMKMRAYLYQGKYKEVLSCVEQIDALKKYGLFHSYEGLFDPANENNKEVLFDIQYIEGENSQGSYIDQYCGTGTGSWTRGSRYVPTDDLVAAYETIDGSPVDPENPYENRDPRLGFTAVLPGSYFLGYRFPNYLYPGGAFNHAGNRLKHLSTRKYRIQDESKLPPSGQSYINDIILRYADVLLSKAEAIIETNGNVADAIAILNRIRTERDDVKISLLPTSMSREEAREKVRHERRIELALEGRYWSDVKRWKIGKELYPMIIKDHEGSVIETKFPNGYLEYYDLLPIPDSERSLNPNLDQNPGW | not soluble
16 | MSLKIAVTGGTGFLGQYVVESIKNDGNTPIILTRSIGNKAINDYEYRVSDYTLEDLINQLNDVDAVVHLAATRGSQGKISEFHDNEILTQNLYDACYENNISNIVYASTISAYSDETSLPWNEKELPLPDLMYGVSKLACEHIGNIYSRKKGLCIKNLRFAHLYGFNEKNNYMINRFFRQAFHGEQLTLHANSVAKREFLYAKDAAKSVIYALKQEKVSGTFNIGSGDALTNYEVANTINNAFGNKDNLLVKNPNANEGIHSSYMDSSKAKELLDFSTDYNFATAVEEIHLLMRGLDDVPLWYEGHHHHHH | soluble
17 | MRYADRVTFVKTTDEQYNPDLGEYTHTEVISITKPCFVMDMGMEKSVQIFGDYQKDRKVIYLKQPYTKAFDYCEYEGRRYKTQANKLGAIVFYLEGDDSIGG | not soluble
18 | QGWEKALYTLVTLYVTTRVIDAIHTRHMKLTAMIVTKKADEIKEAIYGKMVRGITTVPAKGAFTNEQKEMMIIVITRYELYDLEKIVKEVDPKAFTNIVQTTGIFGFFRKD | not soluble
19 | MGSDKIHHHHHHMRRNQVAIVGAAETTKLGVIPDMSQIQLHADAALNAIADAGLKLSDIDGIATAVETPQQIAHYLGITPTWVDGTSVGGCSFMLHVRHAAAAIEAGLCKTVLITHAESGKSMIGKLPRSIPADSLQGQFEAPYGIYGPPSQFPIPVLRFMKTHGITHEQIASVAVVQREWAAKNPRAMMKDPITVADVLNSRMIAYPFRLLQCCLVTDGGGALIMTSADRAKDFPHKPVYVLGTGESVETPMVSQMETFNSSRAFKVAGPTAFREAGISHSDVDHLMIYDAFAHLPLFGLGDLGFMPYEETGKFIADGNTRPGGKLPLNTNGGGLSYMHSGMYGMYALQESVRQMRGIAPAQVPNAKISVCHGVGGMFAASGTIIFTNEK | not soluble
20 | MAEAASCARKGTKYAEGTQPFTVLIEGNIGSGKTTYLNHFEKYKNDICLLTEPVEKWRNVNGVNLLELMYKDPKKWAMPFQSYVTLTMLQSHTAPTNKKLKIMERSIFSARYCFVENMRRNGSLEQGMYNTLEEWYKFIEESIHVQADLIIYLRTSPEVAYERIRQRARSEESCVPLKYLQELHELHEDWLIHQRRPQSCKVLVLDADLNLENIGTEYQRSESSIFDAISSNQQPSPVLVSPSKRQRVAR | soluble
21 | MAHHHHHHMLRLSFVHRKSRHQNVLRRGRPHMQKYRELNRWQRQAQGISKWDQSQSHRPLPYVERFNPEGVGVTRGTSAFAWQWWHTQQPWLPNVAPPNHTGRKITNTSGTTEETAKPPAWDEEFTSVVLSMTDSEIREYLLDKLTDVIFAETQRDGYELRRLDFEGNPLTELPERRIIESFVFEEETLRERVIYQVVEGVFRLSPTSADRRELRSVETIIDYVLTHVSAARPDSRPRVTPAALAVMQQCPLQPELGFVHALPVDSRDEILQEWERMHHLDWQFGKAVYVPRSREETRGNLTWLREERHNAERVEFMKRVASGEAKAEHMRRIAEAACTERPETMHG | not soluble
22 | MPVAKDNQFWDALMENKVAKKLIKKHKCKAKCENIDDLANRYEVSKQEVEKVFKIFQLMDDDGSGTISSSEVAKMLNELGIDVSPKVVQAVMRSSDVSGDGQIDFEEFLAAVTSKIKLSTVKADVQLMLSKIDNNPEKVVSWGIEHLMIIFCEEPLKSCYYRLALTAGCTIICGYLWF | not soluble
23 | MQQKDAVPDTAKKLKAPLTGLKTEQKVTERRPVAVVVNNHPKARPQSGLSKADIVIEALAEGQITRFLAIFQSQMPETVGPVRSAREYFVTLSNGFDSIFVHHGWSPGAKKQLESGAADYMNGLDFDGSLFWRADFSKPPHNSYTSYDYIKKAAEQKGYKLKQETNPLLFQTSDAKPANESYNVRVDYGTNNVTNLVEYNYDKKAEFYTRSSDGVITTDRETGKPVAMQNIFIVEASHHIIDQDGRRDIDLESGGKGLLFQHGNVIETDWKQVNGRIVPVKDGKWLPFVPGKTWINIVPDLDAASISKGEGVLEHHHHHH | soluble
